For data set [1], the target named is T1, L-AAO/MOG (Pseudomonas sp. AIU 813, UniProt W6JQJ6).
T1 construct: gene laao; N-terminally His-tagged, pET15b-laao/mog, expressed in E. coli; homodimer with FAD
T1 sequence (W6JQJ6 1-560): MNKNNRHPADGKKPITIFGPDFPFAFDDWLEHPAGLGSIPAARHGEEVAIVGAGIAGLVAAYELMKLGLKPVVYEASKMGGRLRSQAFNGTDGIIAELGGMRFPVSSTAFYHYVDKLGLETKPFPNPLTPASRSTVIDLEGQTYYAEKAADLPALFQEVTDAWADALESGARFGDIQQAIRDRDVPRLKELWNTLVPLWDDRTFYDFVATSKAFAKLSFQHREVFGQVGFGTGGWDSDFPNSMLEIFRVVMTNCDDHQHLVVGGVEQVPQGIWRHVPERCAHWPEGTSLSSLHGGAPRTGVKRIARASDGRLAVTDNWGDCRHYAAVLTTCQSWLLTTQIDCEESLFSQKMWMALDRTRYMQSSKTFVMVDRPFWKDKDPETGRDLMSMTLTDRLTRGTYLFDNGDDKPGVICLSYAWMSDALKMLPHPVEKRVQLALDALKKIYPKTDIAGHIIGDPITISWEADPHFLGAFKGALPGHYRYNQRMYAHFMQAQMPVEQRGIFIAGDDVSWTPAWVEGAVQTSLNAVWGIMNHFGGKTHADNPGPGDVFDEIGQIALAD
Briefly: X-ray crystal structure, […] Å. The format is binding. The settings on record: bound cofactor; redox state mixed or uncertain; L-Lys complex.

For data set [2], the target named is T1, L-AAO/MOG. The data set is described as follows: X-ray crystal structure, soaking, […] Å. The format is binding. The settings on record: active site, also second site; 20 mM soak; density relatively ambiguous; modelled as unreacted substrate.
Another data set concerns T2, NCCCC[C@H](N)C(=O)O.
T2 construct: N-terminally His-tagged, pET15b-laao/mog, expressed in E. coli; homodimer with FAD
Briefly: purified protein. The settings on record: 100 mM potassium phosphate pH 7.0, 30 °C. The format is biochemical, Pseudomonas sp. AIU 813.

For the next data set, the system named is T3, N=C(N)NCCC[C@H](N)C(=O)O.
T3 construct: N-terminally His-tagged, pET15b-laao/mog, expressed in E. coli; homodimer with FAD
Briefly: purified protein. The format is biochemical, Pseudomonas sp. AIU 813. The settings on record: oxidase reaction, borate-NaOH pH 9.0, 30 °C, pH 9.0.

In data set [3] the target is T1, L-AAO/MOG. Briefly: X-ray crystal structure, soaking, […] Å. The settings on record: active site, also second site; 20 mM soak; density relatively ambiguous; modelled as unreacted substrate. The format is binding. The source holds these as a separate data set.
Data set [4] has as its target T1, L-AAO/MOG. Briefly: X-ray crystal structure, soaking, […] Å. The format is binding. The settings on record: active site, also second site at dimer interface; 10 mM soak; modelled as unreacted substrate, redox state uncertain.
Data set [5] deals with the molecule itself. Briefly: crystal structure; sitting-drop vapor diffusion at 20 °C, 20% PEG3350 and 0.15 M DL-malic acid pH 7.0; crystals soaked with 10 mM L-Lys, 20 mM L-Orn or 20 mM L-Arg; tetramer (two biological dimers) in the asymmetric unit.
Substrate in data set [6]: NCCCC[C@H](N)C(=O)O
The data set is described as follows: purified protein. The format is biochemical, Pseudomonas sp. AIU 813. The settings on record: 100 mM potassium phosphate pH 7.0, 30 °C, pH 7.0.

Substrate in data set [7]: N=C(N)NCCC[C@H](N)C(=O)O
The data set is described as follows: purified protein. The format is biochemical, Pseudomonas sp. AIU 813. The settings on record: borate-NaOH pH 9.0, 30 °C, pH 9.0.

Substrate in data set [8]: NCCC[C@H](N)C(=O)O
The data set is described as follows: purified protein. The settings on record: borate-NaOH pH 9.0, 30 °C.

The record followed here is article PMC5832979, “Ligand complex structures of L‐amino acid oxidase/monooxygenase from Pseudomonas sp. AIU 813 and its conformational change” (FEBS Open Bio, 2018).

`Cc1cc2nc3c(=O)[nH]c(=O)nc-3n(C[C@H](O)[C@H](O)[C@H](O)COP(=O)(O)OP(=O)(O)OC[C@H]3O[C@@H](n4cnc5c(N)ncnc54)[C@H](O)[C@@H]3O)c2cc1C` [FAD]: the “X-ray crystal structure, 2.10 Å” value at L-AAO/MOG [1] was “FAD and L‐Lys molecules are shown as yellow and magenta sticks”.
Regarding `NCCC[C@H](N)C(=O)O` [L-Orn], the “X-ray crystal structure, soaking, 2.00 Å” value on L-AAO/MOG [2] is “The structures of L‐AAO/MOG complexed with either L‐Lys, L‐Orn, or L‐Arg were determined”.
With “L-AAO/MOG (Pseudomonas sp. AIU 813; D238A)”, in the data set with NCCCC[C@H](N)C(=O)O (monooxygenase reaction), the Km was 260 ± 20 µM, the catalytic constant (kcat) was found to be 2.7 ± 0.4 s⁻¹ and the specificity constant (kcat/Km) was determined as 10000 ± 1000 M⁻¹ s⁻¹. For the same molecule, in the data set with NCCCC[C@H](N)C(=O)O (oxidase reaction, pH 7.0), the Michaelis-Menten constant (Km) came to 610 ± 50 µM and the kcat stood at 0.5 ± 0.03 s⁻¹. Besides, in the data set on N=C(N)NCCC[C@H](N)C(=O)O, the Km was 410 ± 10 µM, the kcat was found to be 0.1 ± 0.02 s⁻¹ and the kcat/Km was found to be 240 ± 60 M⁻¹ s⁻¹.
With `N=C(N)NCCC[C@H](N)C(=O)O` [L-Arg], the “X-ray crystal structure, soaking, 2.30 Å” value at L-AAO/MOG [3] is reported as “The structures of L‐AAO/MOG complexed with either L‐Lys, L‐Orn, or L‐Arg were determined”.
Consider “L-AAO/MOG (Pseudomonas sp. AIU 813; D238E)”, for which, in the data set with NCCCC[C@H](N)C(=O)O (monooxygenase reaction), the Michaelis constant (Km) worked out at 43 ± 1 µM, the catalytic constant (kcat) worked out at 8.1 ± 0.6 s⁻¹ and the kcat/Km stood at 190000 ± 10000 M⁻¹ s⁻¹. In the data set on NCCCC[C@H](N)C(=O)O (oxidase reaction), the Km was 18 ± 6 µM, the kcat amounted to 2.3 ± 0.3 s⁻¹ and the kcat/Km amounted to 130000 ± 10000 M⁻¹ s⁻¹.
On to “L-AAO/MOG (Pseudomonas sp. AIU 813; D238F)”, for which, in the data set on NCCCC[C@H](N)C(=O)O (monooxygenase reaction), the Michaelis-Menten constant (Km) was 72 ± 3 µM, the kcat turned out to be 0.8 ± 0.04 s⁻¹ and the kcat/Km came out at 11000 ± 1000 M⁻¹ s⁻¹. Besides, in the data set with NCCCC[C@H](N)C(=O)O (oxidase reaction, pH 7.0), the Michaelis constant (Km) is 49 ± 9 µM, the kcat is 0.17 ± 0.01 s⁻¹ and the specificity constant (kcat/Km) came out at 3500 ± 200 M⁻¹ s⁻¹. For the same molecule, in the data set with N=C(N)NCCC[C@H](N)C(=O)O, the Michaelis-Menten constant (Km) was 80 ± 18 µM, the catalytic constant (kcat) stood at 0.1 ± 0.01 s⁻¹ and the kcat/Km came out at 1300 ± 100 M⁻¹ s⁻¹.
On to `NCCCC[C@H](N)C(=O)O` [L-Lys], for which the “X-ray crystal structure, soaking, 2.10 Å” value on L-AAO/MOG [4] was “electron density map for a L‐Lys molecule was clearly observed in the substrate binding pocket”.

B1: L‐Amino acid oxidase/monooxygenase from Pseudomonas sp. AIU 813 (enzyme)
chain: T1 sequence (W6JQJ6 1-560)
notes: L-amino acid oxidase/monooxygenase (L-AAO/MOG), Pseudomonas sp; AIU 813; FAD-dependent; expression plasmid pET15b-laao/mog; Carries FAD; The biological dimer is chains A-C and B-D of the crystal; also called L‐AAO/MOG; wild‐type enzyme
As to B1, the binding result in [5] is “binds”. In addition, the Km in the data set “purified protein [6]” (monooxygenase reaction) turned out to be 61 ± 6 µM; in the data set “purified protein [6]” (oxidase reaction), 27 ± 3 µM; in the data set “purified protein [7]” (monooxygenase reaction), 67 ± 5 µM; in “purified protein [7]” (oxidase reaction), 48 ± 1 µM; in “purified protein [8]” (monooxygenase reaction), 33 ± 1 µM; in the data set “purified protein [8]” (oxidase reaction), 22 ± 4 µM. The kcat worked out at 4.5 ± 0.1 s⁻¹ in the data set “purified protein [6]” (monooxygenase reaction); 0.8 ± 0.09 s⁻¹ in the data set “purified protein [6]” (oxidase reaction); 1.6 ± 0.2 s⁻¹ in the data set “purified protein [7]” (monooxygenase reaction); 0.41 ± 0.02 s⁻¹ in “purified protein [7]” (oxidase reaction); 6.7 s⁻¹ in the data set “purified protein [8]” (monooxygenase reaction); 1.5 s⁻¹ in the data set “purified protein [8]” (oxidase reaction). In addition, the kcat/Km in the data set “purified protein [6]” (monooxygenase reaction) came to 74000 ± 5000 M⁻¹ s⁻¹; in “purified protein [6]” (oxidase reaction), 30000 ± 1000 M⁻¹ s⁻¹; in “purified protein [7]” (monooxygenase reaction), 24000 ± 1000 M⁻¹ s⁻¹; in “purified protein [7]” (oxidase reaction), 8500 ± 650 M⁻¹ s⁻¹; in the data set “purified protein [8]” (monooxygenase reaction), 200000 M⁻¹ s⁻¹; in “purified protein [8]” (oxidase reaction) it was 68000 M⁻¹ s⁻¹.

The term Km denotes the substrate concentration at which the rate is half of its maximum. A word on the kcat: it is the number of substrate molecules converted per active site and unit of time at saturation. In general, kcat/Km refers to the turnover number divided by the Michaelis constant.
